Data: PMC3103402

B1: BDNF wtRTS (ssRNA)
RNA: AUGGACCCAAUGAGAACUAGU
B2: Arc wtRTS (ssRNA)
RNA: GCUGAGGAGGAGGAGAUCAUU
B3: CaMKIIα wtRTS (ssRNA)
RNA: AACGCCAGUGAGCCAGGAACU

Target: CBF-A (hnRNP A/B), p37 isoform (UniProt Q99020 1-285)
Assay: EMSA

Sequence of CBF-A (hnRNP A/B), p37 isoform (Q99020 whole entry, canonical isoform): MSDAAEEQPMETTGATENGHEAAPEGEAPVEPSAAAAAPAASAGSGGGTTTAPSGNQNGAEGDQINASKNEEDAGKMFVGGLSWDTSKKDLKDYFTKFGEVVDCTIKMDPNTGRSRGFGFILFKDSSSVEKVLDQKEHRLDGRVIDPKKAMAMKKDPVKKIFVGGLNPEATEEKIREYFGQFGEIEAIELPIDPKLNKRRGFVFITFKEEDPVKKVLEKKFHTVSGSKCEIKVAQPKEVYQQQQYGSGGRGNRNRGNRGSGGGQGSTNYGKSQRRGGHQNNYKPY

| Binder | binding result |
| --- | --- |
| B1 | binds |
| B2 | binds |
| B3 | binds |
